Measured values published in the supplement of paper PMC10567573.
± gives the standard deviation.

Assay: protein stability index of a GFP-peptide fusion (GPS, HEK-293T) (PSI 1-6); higher = more stable
[1] = treatment: DMSO, c terminus: a fixed tail appended
[2] = treatment: MLN4924 1 uM, 8 h, c terminus: a fixed tail appended
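Further: 24-mer peptide tiles fused after GFP, lentivirally expressed, FACS-sorted into six equal bins by GFP/DsRed ratio, decoded by Illumina sequencing, PSI is the read-weighted mean bin number.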

Sequence | protein stability index [1] | protein stability index [2] | protein stability index (treatment: DMSO, c terminus: native) | protein stability index (treatment: MLN4924 1 uM, 8 h, c terminus: native)
LWSDPDDRGGWGISPRGAGYTFGQ [PPP2CA] | 2.5 ± 0.31 | 2.72 ± 0.26 | – | –
LESSEELLETANQTLQAMDSEDFP [FSD1] | 5.4 ± 0.19 | 5.57 ± 0.1 | – | –
SLRTLKPEGNILRDRFKSFQRRNM [NOP53] | 3.22 ± 0.23 | 3.21 ± 0.21 | – | –
LNFKAEPESETSILLSWTPPRSDT [PTPRD] | 3.3 ± 0.36 | 3.45 ± 0.28 | – | –
QTEETQETALTLACCGGFLEVADF [ANKRD17] | 3.79 ± 0.28 | 3.96 ± 0.28 | – | –
TYRKVMNWKETLVFPPEVPISEKA [STK38L] | 3.09 ± 0.29 | 3.24 ± 0.29 | – | –
QGQPDPAPRPGPPAGTPPPTARHF [MOSPD3] | 3.77 ± 0.21 | 3.65 ± 1.1 | – | –
DEKINIYCLTCEVPTCSMCKVFGI [TRIM63] | 2.43 ± 0.14 | 2.45 ± 0.32 | – | –
DAVTIPCGHTFCRLCLPALSQMGA [TRIM15] | 2.47 ± 0.35 | 2.17 ± 0.27 | – | –
TGGADAYYEMGIHCWDVAGAGIIV [IMPA1] | 2.83 ± 0.79 | 2.97 ± 0.85 | – | –
INSGYETRRKKGKKDKDISKEKDT [KMT2E] | 4.59 ± 0.13 | 4.78 ± 0.16 | – | –
HCIQQILESVNHCHLNGIVHRDLK [CAMK2D] | 2.26 ± 0.047 | 2.36 ± 0.5 | – | –
YQLGEEALLKFREDEGFVREEEDR [KCNA4] | 4.51 ± 0.22 | 4.85 ± 0.31 | – | –
LFDMCGISEAQLKDRETSKVIYDF [WASL] | 2.58 ± 0.16 | 2.7 ± 0.3 | – | –
HYPFLGAMGDHSKKKPGTAMCVGC [ISL2] | 2.86 ± 0.34 | 3.25 ± 0.43 | – | –
ETKLDLISKGEEPRAGKEESGVSV [SLC29A1] | 5.44 ± 0.15 | 5.39 ± 0.52 | – | –
PPWFEGLESRFQSKSGYLRYSCES [DFFB] | 2.51 ± 0.19 | 2.54 ± 0.2 | – | –
EFFAVTRFLVGMMNGGMSLVAFVL [SLC22A15] | 2.22 ± 0.24 | 2.2 ± 0.38 | – | –
KAVKYQSKARRKKIMIIICCVILG [STX1A] | 2.18 ± 0.8 | 2.25 ± 0.43 | – | –
ATPIVPVVPPTPPVVKKKGVKRKA [BRD3] | 5.33 ± 0.26 | 5.27 ± 0.12 | – | –
GGEMSPQVETSIEGTIPFSKPVKV [INTS4] | 4.77 ± 0.2 | 4.76 ± 0.17 | – | –
NVPPIPVETLVKKKIPIISNAMLV [ACSBG2] | 2.4 ± 0.21 | 2.38 ± 0.27 | – | –
KNKPKMNYEKLSRGLRYYYDKNII [ETS1] | 2.71 ± 1.1 | 2.17 ± 0.28 | – | –

Sequence | protein stability index [1] | protein stability index [2] | protein stability index (treatment: DMSO, c terminus: native) | protein stability index (treatment: MLN4924 1 uM, 8 h, c terminus: native)
NLQSLKFQGGHGPAATLLRRSKT [RIPK4] | – | – | 3.18 ± 0.21 | 3.27 ± 0.14
TVILIESTNEITYGLPIMVTLMVA [CLCN6] | 3.47 ± 0.47 | 3.32 ± 0.29 | – | –
VMAYDRYMAICKPLHELITMNRRV [OR4A15] | 2.25 ± 0.35 | 2.23 ± 0.37 | – | –
QAASRIIRNEQFAIRRFQSMPVRL [CDC25B] | 2.75 ± 0.31 | 2.74 ± 0.49 | – | –
NMPETLPNNSCYSAGIAKLEEGDE [TNFSF13B] | 5.35 ± 0.23 | 5.5 ± 0.21 | – | –
TIHGLIYNALKLFMEMNQKLFDDC [PPP2R5C] | 2.93 ± 0.33 | 2.89 ± 0.45 | – | –
IIHETAVGMNFLHCMAPPLLHLDL [RIPK4] | 2.6 ± 0.64 | 2.57 ± 0.85 | – | –
PTLGGGFHVNLGKESRAQTLQNGR [BRF1] | 4.04 ± 0.47 | 4.14 ± 0.33 | – | –
AEKCLDFLVDMFNDEIEEVRLQSI [INTS4] | 2.94 ± 0.16 | 2.94 ± 0.4 | – | –
GECRQMSSSSQIGNDSFQLQVTED [CLCN6] | 5.06 ± 0.22 | 5.09 ± 0.25 | – | –
RYCMQLSQIQGLIGSVEEQLAQLR [KRT16] | 2.28 ± 0.45 | 2.49 ± 0.28 | – | –
EADKNDKAVKDLVVLLFETALLSS [HSP90AB1] | 2.13 ± 0.067 | 2.2 ± 0.39 | – | –
RGIFVVRGENVVLLGEIDLEKESD [LSM1] | 2.37 ± 0.23 | 2.31 ± 0.52 | – | –
REVRRAQARLLNPSATRAKPGPQD [NOP53] | 4.75 ± 0.28 | 4.66 ± 0.14 | – | –
CSEDWVGYQRKCYFISTVKRSWTS [CD69] | 2.36 ± 0.33 | 2.65 ± 0.49 | – | –
ARTFGNEARFIRRSCTPNAEVRHE [KMT2E] | 3.2 ± 0.51 | 3.22 ± 0.26 | – | –
LINHKKAEDTEKKDEPSKYNQQQA [CEP70] | 5.4 ± 0.21 | 5.26 ± 0.38 | – | –
AEGTPRSNHSAQDSAVENLLLLSK [IKZF1] | 4.67 ± 0.41 | 4.86 ± 0.95 | – | –
RHDVIVSIVTAAKKDILLVNDHLL [PDS5B] | 2.51 ± 0.31 | 2.29 ± 0.5 | – | –
MTVGILSNSLAIAILMKAYQRFRQ [PTGFR] | 2.17 ± 0.28 | 2.2 ± 0.31 | – | –
APKPDAAPSIDLFSTDAFSSPPQG [SNAP91] | 4.73 ± 0.14 | 4.84 ± 0.14 | – | –
ALAAIYEEKEAWYREESDSLGQDL [DAPK3] | – | 4.6 ± 0.5 | – | –
RDSSFLISGGFDRTVAIWDVAEGY [WDR88] | 2.71 ± 0.16 | 2.86 ± 0.23 | – | –

Sequence | protein stability index [1] | protein stability index [2] | protein stability index (treatment: DMSO, c terminus: native) | protein stability index (treatment: MLN4924 1 uM, 8 h, c terminus: native)
AIDQYRVCQEVLERSRDVVDDVSV [RHOBTB2] | 4.66 ± 0.31 | 4.78 ± 0.13 | – | –
FHVNLGKESRAQTLQNGRRHIHHL [BRF1] | 2.66 ± 0.34 | 2.93 ± 0.41 | – | –
LMRHGMEKIWRPNRVFSLQDLCCR [RAB40C] | 2.74 ± 0.14 | 2.71 ± 0.27 | – | –
VITLDPQTASRSLVLSEDRKSVRY [TRIM15] | 3.44 ± 0.2 | 3.64 ± 0.14 | – | –
ANYLEKVRQLERENAELESRIQEW [KRT36] | 4.27 ± 0.3 | 4.46 ± 0.16 | – | –
SKYENYFSASERLSLKRELSWYRG [HESX1] | 2.44 ± 0.26 | 2.31 ± 0.33 | – | –
QMLRKTVKDEAHQAQKDPKKDRPL [PPP2R5C] | 4.89 ± 0.1 | 4.97 ± 0.24 | – | –
DTAHDFRAKCRNMEHALREKAKAF [TRIM35] | 3.18 ± 0.25 | 3.43 ± 0.23 | – | –
IHAELSKLVKKHAAQRSTETALYR [FKBP8] | 2.94 ± 0.31 | 2.69 ± 0.44 | – | –
PWDKNPEALAKWAEGRTGFPWIDA [CRY1] | 3.08 ± 0.17 | 3.04 ± 0.2 | – | –
KEEEEKDHNEAMKPEEPPQNLLRE [PCMTD1] | 5.39 ± 0.77 | 5.88 ± 0.09 | – | –
EDVEAVQKLQDVLHEALQDYEAGQ [ESRRG] | 4.92 ± 0.46 | 4.95 ± 0.51 | – | –
VSRRLSPRKVSTCTDHELENHSMY [TRIM9] | 3.7 ± 0.22 | 3.77 ± 0.19 | – | –
VSMLGYPFILPDMVGGNAVPQRTA [MYORG] | 2.25 ± 0.42 | 2.54 ± 0.32 | – | –
GKLSWGTMARALGRFKLSIPHTHL [WDR88] | 2.31 ± 0.28 | 2.13 ± 0.11 | – | –
SSSFTSIASEWFLIANRSYKVSAA [SLC22A15] | 2.26 ± 0.47 | 2.42 ± 0.31 | – | –
CQILELLNAELEEKMMQEAEKLKA [CCDC89] | 3.76 ± 0.26 | 3.65 ± 0.17 | – | –
ADSGRYRASPTRTAPLPMPEGPEP [ELOA2] | 4.84 ± 0.32 | 4.96 ± 0.28 | – | –
KEPAEFNGDGAFLHDNHEQMPTEI [ZNF649] | 5.11 ± 0.25 | 5.16 ± 0.26 | – | –
KTLLAIGGWNFSTQKFTDMVATAN [CHIT1] | 2.39 ± 0.34 | 2.14 ± 0.21 | – | –
QRFEVIEFDDGSGSVLRIQPLRTP [PTPRD] | 2.68 ± 0.28 | 2.99 ± 0.21 | – | –
NKRVGMYLEGFDPFNQSTFNNVVE [DLC1] | 3.09 ± 0.24 | 3.23 ± 0.2 | – | –
LSPAQKDLYRDVMLENYSNLVSVG [ZNF649] | 2.37 ± 0.74 | 3.02 ± 0.77 | – | –

Sequence | protein stability index [1] | protein stability index [2] | protein stability index (treatment: DMSO, c terminus: native) | protein stability index (treatment: MLN4924 1 uM, 8 h, c terminus: native)
QSFTLRGDHRSPASAQKFSSRSTV [NET1] | 3.92 ± 0.097 | 3.9 ± 0.3 | – | –
FDGRHSQTLKAMVQAWPFTCLPLG [PRAME] | 2.38 ± 0.48 | 2.24 ± 0.36 | – | –
RSIRQYYKKGIIRKPDISQRLVYQ [SPDEF] | 2.84 ± 0.24 | 2.97 ± 0.42 | – | –
VALLTGKFSNIVDKFVIVDCRYPY [CDC25B] | 2.45 ± 1.7 | 2.59 ± 1.2 | – | –
NGVLEPLYLCPNGARCATWFQDPT [SLC25A39] | 2.48 ± 0.19 | 2.47 ± 0.074 | – | –
KKDILLVNDHLLNFVRERTLDKRW [PDS5B] | 2.13 ± 0.26 | 2.35 ± 0.18 | – | –
SFAQATQLGDLHTCLMMDMKACQE [INTS3] | 3.21 ± 0.19 | 3.3 ± 0.43 | – | –
AEKLKAQGEYSRKLEERFMTLAAN [CCDC89] | 3.4 ± 0.41 | 3.49 ± 0.45 | – | –
LEESDIDRDGTINLSEFQHVISRS [CIB1] | 4.69 ± 0.24 | 4.75 ± 0.084 | – | –
KKINTEGDVPPSMSGSCAVCVDRV [KLHDC2] | 4.18 ± 0.34 | 4.29 ± 0.17 | – | –
FMECLVDARMLDHLTKKDLRVHLK [PPFIA4] | 2.4 ± 0.32 | 2.67 ± 0.24 | – | –
PESAIKFMAYEQIKRLVGSDQETL [SLC25A25] | 3.31 ± 0.15 | 3.4 ± 0.25 | – | –
VPPGVVNIVFGTGPRVGEALVSHP [ALDH8A1] | 2.21 ± 0.36 | 2.27 ± 0.35 | – | –
SGRKNSTSKDLVTLGASSLREERG [C6orf223] | 4.77 ± 0.099 | 4.87 ± 0.26 | – | –
EAARNGKMKFVIGNGKNLVDFTFV [NSDHL] | 2.17 ± 0.47 | 2.04 ± 0.35 | – | –
SNQEVLQSCLLVIFATKPHVLPAV [PYCR3] | 3.34 ± 0.4 | 3.01 ± 0.34 | – | –
RTTSVRCRGIPRGPVRPAIPPPLS [NEK8] | 3.37 ± 0.1 | 3.64 ± 0.23 | – | –
QVFRLAFRSGALDLDSCSRDGALL [MYORG] | 2.33 ± 0.29 | 2.14 ± 0.091 | – | –
SGTGKKEKEKKNRKGKDKENGSVS [EIF5] | 5.36 ± 0.24 | 5.31 ± 0.21 | – | –
GAGDWREKEAKDLTELVQRRITYL [FUT8] | 3.61 ± 0.27 | 3.31 ± 0.3 | – | –
